Patent publication US12576138B2, “Compounds and methods for the immobilization of myostatin-inhibitors on the extracellular matrix by transglutaminase” (JULIUS-MAXIMILIANS-UNIVERSITÄT WÜRZBURG, priority 2018, dated 2026)

How the values were obtained:
fibronectin = target: T1, fibronectin (Mus musculus, UniProt P11276); assay: FXIIIa-mediated immobilization of MI-D chain on decellularized cell-derived ECM; assay type: biochemical
T1 construct: The ECM was produced by NIH3T3 fibroblasts and on day 6 decellularized; endogenous in cells; host or cells: NIH3T3 fibroblasts (decellularized ECM)
Text: As proof of concept, the MI with TG tag (“MI-D chain”) was immobilized onto cell derived, isolated extracellular matrix (ECM). The ECM was produced by NIH3T3 fibroblasts and on day 6 decellularized and washed to remove cell debris and adsorbed proteins.
(§1) MI-D chains were immobilized on ECM with high efficacy (FIG. 4A) and the co-localization with fibronectin confirmed using confocal laser scanning microscopy (FIG. 4B). Bioactivity of immobilized MI was confirmed by capturing myostatin using ELISA and consequently the restoration of mouse myoblast cells to differentiate in presence of myostatin (FIG. 4C, D).
(§2) FIG. 4: Immobilization of the MI-D chain on decellularized ECM. (A) Coupling efficacy in presence and absence of TG. (B) Confocal Laser Scanning Microscopy images of MI labeled with Atto594-maleimide on ECM in presence (panels A) and absence (panels B) of FXIIIa. […] (C) Amount of free myostatin after exposure to ECM with immobilized MI under different conditions measured by ELISA. (D) Bioactivity of MI immobilized on ECM determined by differentiation of myoblasts in presence of myostatin-containing medium and MI bound on ECM in presence or absence of TG.

myostatin [1] = target: T2, myostatin (Homo sapiens, UniProt O14793); assay: Capture of myostatin by ECM-immobilized MI, measured by ELISA; assay type: binding
T2 sequence (O14793 267-375): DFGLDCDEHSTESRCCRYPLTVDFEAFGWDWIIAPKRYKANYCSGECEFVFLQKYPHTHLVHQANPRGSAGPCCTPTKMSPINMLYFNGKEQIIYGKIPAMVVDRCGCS
Text: as §1, §2

mouse myoblast cells = assay: Differentiation of myoblasts in presence of myostatin and MI bound on ECM; assay type: cell-based; settings: MI immobilized on ECM
Text: as §1, §2

[2] = target: glutamine substrate derived from α-2 plasmin inhibitor (Homo sapiens, UniProt P08697); assay: Transglutaminase coupling of the isolated IGF-I D chain to a glutamine substrate; assay type: biochemical
Protocol: Starting off by examination of the specificity and efficacy of the IGF-I D chain, the isolated sequence (PLKPAKSA) was coupled to a glutamine substrate derived from α-2 plasmin inhibitor, achieving >90% conversion within less than 10 minutes.

myostatin [3] = target: T2, myostatin; assay: Bioactivity of released MI: myoblast proliferation in presence of myostatin; assay type: cell-based; settings: after release from ECM triggered by MMPs
Text: If a flaring inflammation in the wounded tissue occurs, accompanied by invasion of macrophages and release of MMPs, the inter-positioned PCL is cleaved, releasing the MI and instantly inhibiting the flaring inflammation and preventing apoptosis of surrounding cartilage and muscle cells.
FIG. 5: (A) Release kinetics of MI modified with a PCL—responding to elevated MMP levels—and the D chain for immobilization on ECM (“MI1”) in comparison to MI modified with the D chain at the C-terminus for direct immobilization on ECM (“MI2”). The MI was labelled with a fluorescent dye before immobilization on the ECM and the release of MI exposed to MMP-1, -8, -9 and -13 for different periods of time was analyzed by HPLC with fluorescence detection. (B) Bioactivity of released MI determined by myoblast proliferation in presence of myostatin and MI after release from ECM triggered by MMPs.

T1 sequence (P11276 33-2477): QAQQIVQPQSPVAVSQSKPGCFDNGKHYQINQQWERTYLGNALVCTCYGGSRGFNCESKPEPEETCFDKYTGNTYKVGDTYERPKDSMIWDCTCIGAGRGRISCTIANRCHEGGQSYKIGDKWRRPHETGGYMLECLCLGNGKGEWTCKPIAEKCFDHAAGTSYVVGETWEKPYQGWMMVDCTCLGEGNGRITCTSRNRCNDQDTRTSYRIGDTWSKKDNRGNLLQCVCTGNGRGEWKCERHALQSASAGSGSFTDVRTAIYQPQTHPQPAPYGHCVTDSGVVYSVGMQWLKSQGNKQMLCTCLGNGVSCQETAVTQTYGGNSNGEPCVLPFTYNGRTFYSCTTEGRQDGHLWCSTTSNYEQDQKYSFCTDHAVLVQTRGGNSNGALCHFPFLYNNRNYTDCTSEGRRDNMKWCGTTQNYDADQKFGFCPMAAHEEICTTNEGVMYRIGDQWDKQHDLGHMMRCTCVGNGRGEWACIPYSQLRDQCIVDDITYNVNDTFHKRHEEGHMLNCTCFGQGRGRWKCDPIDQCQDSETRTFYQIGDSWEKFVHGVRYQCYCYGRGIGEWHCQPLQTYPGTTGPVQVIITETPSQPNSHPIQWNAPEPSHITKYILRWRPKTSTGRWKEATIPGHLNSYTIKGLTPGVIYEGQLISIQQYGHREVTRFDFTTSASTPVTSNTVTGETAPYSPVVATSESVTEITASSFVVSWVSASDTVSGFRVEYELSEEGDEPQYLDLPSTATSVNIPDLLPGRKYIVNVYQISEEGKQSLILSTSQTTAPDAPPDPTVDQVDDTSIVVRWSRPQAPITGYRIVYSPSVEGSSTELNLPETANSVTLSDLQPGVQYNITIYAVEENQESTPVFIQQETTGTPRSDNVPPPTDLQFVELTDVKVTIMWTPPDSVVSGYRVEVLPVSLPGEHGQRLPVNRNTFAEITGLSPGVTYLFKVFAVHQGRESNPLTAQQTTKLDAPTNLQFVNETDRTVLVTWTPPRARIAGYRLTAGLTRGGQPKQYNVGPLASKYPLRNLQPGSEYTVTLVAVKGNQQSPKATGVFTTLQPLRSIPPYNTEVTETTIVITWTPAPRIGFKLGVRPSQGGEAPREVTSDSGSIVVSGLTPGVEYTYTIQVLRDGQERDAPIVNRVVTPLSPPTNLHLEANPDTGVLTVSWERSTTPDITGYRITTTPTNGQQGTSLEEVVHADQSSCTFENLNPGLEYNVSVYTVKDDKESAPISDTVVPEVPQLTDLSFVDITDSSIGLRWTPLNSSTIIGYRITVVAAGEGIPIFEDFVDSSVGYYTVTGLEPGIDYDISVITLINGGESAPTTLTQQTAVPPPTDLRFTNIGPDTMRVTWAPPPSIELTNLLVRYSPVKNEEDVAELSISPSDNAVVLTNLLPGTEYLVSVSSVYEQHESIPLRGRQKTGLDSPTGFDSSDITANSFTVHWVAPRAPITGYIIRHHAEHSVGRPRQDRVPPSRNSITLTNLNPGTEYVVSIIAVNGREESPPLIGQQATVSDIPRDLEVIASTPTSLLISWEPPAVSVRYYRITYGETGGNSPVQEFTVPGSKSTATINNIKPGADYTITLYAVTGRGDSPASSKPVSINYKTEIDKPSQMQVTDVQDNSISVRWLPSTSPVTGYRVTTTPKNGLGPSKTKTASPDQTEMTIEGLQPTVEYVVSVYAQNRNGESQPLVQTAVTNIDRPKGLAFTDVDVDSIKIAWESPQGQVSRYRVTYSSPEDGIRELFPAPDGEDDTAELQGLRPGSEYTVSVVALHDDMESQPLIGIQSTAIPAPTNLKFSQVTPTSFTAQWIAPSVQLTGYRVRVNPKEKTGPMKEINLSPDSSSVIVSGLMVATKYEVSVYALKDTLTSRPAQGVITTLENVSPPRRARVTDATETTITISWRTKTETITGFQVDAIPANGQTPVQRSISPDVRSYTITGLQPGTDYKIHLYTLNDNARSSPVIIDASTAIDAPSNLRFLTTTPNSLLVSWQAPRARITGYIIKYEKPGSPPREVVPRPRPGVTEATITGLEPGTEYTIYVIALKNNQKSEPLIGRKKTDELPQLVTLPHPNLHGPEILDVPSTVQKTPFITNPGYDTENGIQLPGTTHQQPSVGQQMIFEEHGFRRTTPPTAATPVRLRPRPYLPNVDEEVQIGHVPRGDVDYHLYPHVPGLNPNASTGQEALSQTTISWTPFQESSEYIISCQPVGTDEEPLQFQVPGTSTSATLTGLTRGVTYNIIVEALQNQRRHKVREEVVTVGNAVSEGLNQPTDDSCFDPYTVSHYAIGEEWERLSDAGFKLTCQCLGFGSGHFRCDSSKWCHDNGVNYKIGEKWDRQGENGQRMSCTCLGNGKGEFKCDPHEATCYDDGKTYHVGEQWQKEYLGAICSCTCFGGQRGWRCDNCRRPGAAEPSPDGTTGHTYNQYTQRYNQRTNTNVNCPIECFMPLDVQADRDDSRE

MI-D chain: myostatin inhibitor with the IGF-I D chain attached at the C-terminus for direct immobilization on ECM (VATQGQCTRWPWMCPPQGWGPLKPAKSA)
co-localization with fibronectin (fibronectin; confocal laser scanning microscopy): confirmed | efficacy of immobilization on ECM (fibronectin; decellularized ECM from NIH3T3 fibroblasts, FXIIIa): high efficacy | bioactivity of immobilized MI by capturing myostatin (myostatin [1]; ELISA, MI immobilized on ECM): confirmed | capacity to bind and inhibit myostatin after immobilization on N-terminus of fibronectin (myostatin [1]; immobilized on ECM): without impairment | differentiation of mouse myoblast cells in presence of myostatin (mouse myoblast cells): restoration

PLKPAKSA (listed as Homo sapiens) [IGF-I D chain]
time to reach >90% conversion ([2]; coupling to glutamine substrate derived from α-2 plasmin inhibitor): less than 10 minutes | conversion (coupling to glutamine substrate) ([2]; within less than 10 minutes): > 90%

VATQGQCTRWPWMCPPQGWG (listed as Homo sapiens) [MI, in b165 the MI released from ECM by MMPs]
bioactivity of released MI in terms of myostatin inhibition (myostatin [3]): bioactive
